Measurements reported in the supplement of paper PMC9112550, “Optimization of the antimicrobial peptide Bac7 by deep mutational scanning” (BMC Biology, 2022).

Test system: Escherichia coli TOP10
Assay: shrunken log2 fold change of peptide-encoding DNA abundance (4.5 h post-induction vs induction); higher = less antimicrobial activity (less host growth inhibition)
Settings: time post-induction: 4.5 h; library: site-saturation at positions 5, 18, 19, 20
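Also: peptides expressed intracellularly from a pBAD plasmid library in pooled LB shake-flask culture, induced with 0.3% L-arabinose, DNA abundance read by NGS, three biological replicates, DESeq2 with apeglm shrinkage.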

Row | Sequence | shrunken log2 fold change
1 | RRIRVRPPRLPRPRPRPAHRPRP | -0.0183
2 | RRIRVRPPRLPRPRPRPAIRPRP | 0.0362
3 | RRIRVRPPRLPRPRPRPAISPRP | -0.122
4 | RRIRVRPPRLPRPRPRPAMDPRP | 0.21
5 | RRIRVRPPRLPRPRPRPANMPRP | 0.00908
6 | RRIRVRPPRLPRPRPRPAPHPRP | 0.286
7 | RRIRVRPPRLPRPRPRPAPVPRP | 0.349
8 | RRIRVRPPRLPRPRPRPAQMPRP | 0.126
9 | RRIRVRPPRLPRPRPRPAQSPRP | 0.107
10 | RRIRVRPPRLPRPRPRPAQTPRP | 0.442
11 | RRIRVRPPRLPRPRPRPARPPRP | 0.486
12 | RRIRVRPPRLPRPRPRPASHPRP | 0.0857
13 | RRIRVRPPRLPRPRPRPATQPRP | -0.0949
14 | RRIRVRPPRLPRPRPRPAVLPRP | 1.75
15 | RRIRVRPPRLPRPRPRPAWCPRP | 0.211
16 | RRIRVRPPRLPRPRPRPAWKPRP | 0.106
17 | RRIRVRPPRLPRPRPRPAWLPRP | 0.186
18 | RRIRVRPPRLPRPRPRPAYEPRP | 0.0112
19 | RRIRVRPPRLPRPRPRPAYIPRP | -0.738
20 | RRIRVRPPRLPRPRPRPCAMPRP | -0.16
21 | RRIRVRPPRLPRPRPRPCDLPRP | -0.238
22 | RRIRVRPPRLPRPRPRPCDYPRP | -0.845
23 | RRIRVRPPRLPRPRPRPCEDPRP | -0.0254
24 | RRIRVRPPRLPRPRPRPCERPRP | -0.00992
25 | RRIRVRPPRLPRPRPRPCEYPRP | -0.00327

Row | Sequence | shrunken log2 fold change
26 | RRIRVRPPRLPRPRPRPCFIPRP | -0.599
27 | RRIRVRPPRLPRPRPRPCGRPRP | 0.168
28 | RRIRVRPPRLPRPRPRPCGWPRP | 0.302
29 | RRIRVRPPRLPRPRPRPCHDPRP | -0.122
30 | RRIRVRPPRLPRPRPRPCHYPRP | -0.0563
31 | RRIRVRPPRLPRPRPRPCIDPRP | -0.106
32 | RRIRVRPPRLPRPRPRPCKNPRP | -0.0206
33 | RRIRVRPPRLPRPRPRPCMMPRP | -0.33
34 | RRIRVRPPRLPRPRPRPCNMPRP | -0.247
35 | RRIRVRPPRLPRPRPRPCPMPRP | -0.0643
36 | RRIRVRPPRLPRPRPRPCPNPRP | -0.245
37 | RRIRVRPPRLPRPRPRPCQDPRP | -0.336
38 | RRIRVRPPRLPRPRPRPCRYPRP | 0.0933
39 | RRIRVRPPRLPRPRPRPCSIPRP | -0.0267
40 | RRIRVRPPRLPRPRPRPCSKPRP | -0.0775
41 | RRIRVRPPRLPRPRPRPCVWPRP | -0.0237
42 | RRIRVRPPRLPRPRPRPCWNPRP | 0.0501
43 | RRIRVRPPRLPRPRPRPCYLPRP | -0.56
44 | RRIRVRPPRLPRPRPRPDCGPRP | -0.0382
45 | RRIRVRPPRLPRPRPRPDCHPRP | -0.296
46 | RRIRVRPPRLPRPRPRPDCWPRP | 0.135
47 | RRIRVRPPRLPRPRPRPDENPRP | -0.0618
48 | RRIRVRPPRLPRPRPRPDGQPRP | -0.0901
49 | RRIRVRPPRLPRPRPRPDGVPRP | -0.0176
50 | RRIRVRPPRLPRPRPRPDIQPRP | 1.23

Row | Sequence | shrunken log2 fold change
51 | RRIRVRPPRLPRPRPRPDKIPRP | -0.19
52 | RRIRVRPPRLPRPRPRPDKKPRP | 0.135
53 | RRIRVRPPRLPRPRPRPDMLPRP | -0.024
54 | RRIRVRPPRLPRPRPRPDMMPRP | 0.0644
55 | RRIRVRPPRLPRPRPRPDMYPRP | -0.0946
56 | RRIRVRPPRLPRPRPRPDNCPRP | -0.0588
57 | RRIRVRPPRLPRPRPRPDNIPRP | -0.714
58 | RRIRVRPPRLPRPRPRPDNQPRP | -0.0991
59 | RRIRVRPPRLPRPRPRPDNWPRP | -0.343
60 | RRIRVRPPRLPRPRPRPDPMPRP | -0.0769
61 | RRIRVRPPRLPRPRPRPDPNPRP | -0.231
62 | RRIRVRPPRLPRPRPRPDQEPRP | -0.00136
63 | RRIRVRPPRLPRPRPRPDTCPRP | -0.135
64 | RRIRVRPPRLPRPRPRPDTDPRP | -0.646
65 | RRIRVRPPRLPRPRPRPDVEPRP | 0.372
66 | RRIRVRPPRLPRPRPRPDVFPRP | -0.0779
67 | RRIRVRPPRLPRPRPRPDWAPRP | 0.133
68 | RRIRVRPPRLPRPRPRPDWNPRP | -0.343
69 | RRIRVRPPRLPRPRPRPEARPRP | 0.389
70 | RRIRVRPPRLPRPRPRPECPPRP | 0.0319
71 | RRIRVRPPRLPRPRPRPEDDPRP | -0.17
72 | RRIRVRPPRLPRPRPRPEDIPRP | -0.311
73 | RRIRVRPPRLPRPRPRPEEAPRP | 0.26
74 | RRIRVRPPRLPRPRPRPEEVPRP | 0.0207
75 | RRIRVRPPRLPRPRPRPEFDPRP | 0.197

Row | Sequence | shrunken log2 fold change
76 | RRIRVRPPRLPRPRPRPEFEPRP | -0.0823
77 | RRIRVRPPRLPRPRPRPEFKPRP | 0.0262
78 | RRIRVRPPRLPRPRPRPEGQPRP | 0.197
79 | RRIRVRPPRLPRPRPRPEIGPRP | 0.0353
80 | RRIRVRPPRLPRPRPRPEIRPRP | 0.173
81 | RRIRVRPPRLPRPRPRPEKDPRP | 0.188
82 | RRIRVRPPRLPRPRPRPEKHPRP | -0.0527
83 | RRIRVRPPRLPRPRPRPEKLPRP | 0.0465
84 | RRIRVRPPRLPRPRPRPEKWPRP | 0.0257
85 | RRIRVRPPRLPRPRPRPEMRPRP | 0.562
86 | RRIRVRPPRLPRPRPRPEQSPRP | 0.362
87 | RRIRVRPPRLPRPRPRPEQYPRP | -0.394
88 | RRIRVRPPRLPRPRPRPERVPRP | -0.107
89 | RRIRVRPPRLPRPRPRPETIPRP | 0.0608
90 | RRIRVRPPRLPRPRPRPETPPRP | 1.14
91 | RRIRVRPPRLPRPRPRPEVMPRP | 0.344
92 | RRIRVRPPRLPRPRPRPEWNPRP | -0.272
93 | RRIRVRPPRLPRPRPRPEWSPRP | 0.267
94 | RRIRVRPPRLPRPRPRPEWYPRP | -0.419
95 | RRIRVRPPRLPRPRPRPEYAPRP | 0.111
96 | RRIRVRPPRLPRPRPRPFCEPRP | -0.197
97 | RRIRVRPPRLPRPRPRPFCYPRP | -0.133
98 | RRIRVRPPRLPRPRPRPFEEPRP | -0.000457
99 | RRIRVRPPRLPRPRPRPFEIPRP | -0.486
100 | RRIRVRPPRLPRPRPRPFEYPRP | -0.151

Row | Sequence | shrunken log2 fold change
101 | RRIRVRPPRLPRPRPRPFFFPRP | 0.151
102 | RRIRVRPPRLPRPRPRPFFRPRP | 0.0448
103 | RRIRVRPPRLPRPRPRPFGIPRP | -0.371
104 | RRIRVRPPRLPRPRPRPFHSPRP | 0.0749
105 | RRIRVRPPRLPRPRPRPFHTPRP | -1.18
106 | RRIRVRPPRLPRPRPRPFHVPRP | -0.262
107 | RRIRVRPPRLPRPRPRPFIHPRP | -0.104
108 | RRIRVRPPRLPRPRPRPFIKPRP | -0.865
109 | RRIRVRPPRLPRPRPRPFISPRP | -0.11
110 | RRIRVRPPRLPRPRPRPFLKPRP | -0.602
111 | RRIRVRPPRLPRPRPRPFMHPRP | -0.156
112 | RRIRVRPPRLPRPRPRPFMRPRP | 0.184
113 | RRIRVRPPRLPRPRPRPFNYPRP | -0.975
114 | RRIRVRPPRLPRPRPRPFPRPRP | 0.0135
115 | RRIRVRPPRLPRPRPRPFQGPRP | -0.0641
116 | RRIRVRPPRLPRPRPRPFREPRP | 0.0848
117 | RRIRVRPPRLPRPRPRPFRMPRP | -0.247
118 | RRIRVRPPRLPRPRPRPFRQPRP | 0.0805
119 | RRIRVRPPRLPRPRPRPFSTPRP | -0.496
120 | RRIRVRPPRLPRPRPRPFSVPRP | -0.299
121 | RRIRVRPPRLPRPRPRPFWQPRP | 0.181
122 | RRIRVRPPRLPRPRPRPFYCPRP | -0.605
123 | RRIRVRPPRLPRPRPRPFYDPRP | -0.0104
124 | RRIRVRPPRLPRPRPRPFYRPRP | -0.576
125 | RRIRVRPPRLPRPRPRPGCFPRP | 0.15

Row | Sequence | shrunken log2 fold change
126 | RRIRVRPPRLPRPRPRPGCHPRP | 0.363
127 | RRIRVRPPRLPRPRPRPGEDPRP | 0.0912
128 | RRIRVRPPRLPRPRPRPGEVPRP | 0.101
129 | RRIRVRPPRLPRPRPRPGFAPRP | 0.299
130 | RRIRVRPPRLPRPRPRPGKLPRP | 0.126
131 | RRIRVRPPRLPRPRPRPGLLPRP | -0.146
132 | RRIRVRPPRLPRPRPRPGLWPRP | 0.76
133 | RRIRVRPPRLPRPRPRPGMWPRP | 0.149
134 | RRIRVRPPRLPRPRPRPGPKPRP | 0.254
135 | RRIRVRPPRLPRPRPRPGQDPRP | -0.41
136 | RRIRVRPPRLPRPRPRPGQGPRP | 0.065
137 | RRIRVRPPRLPRPRPRPGRAPRP | 0.685
138 | RRIRVRPPRLPRPRPRPGRKPRP | -0.0493
139 | RRIRVRPPRLPRPRPRPGRSPRP | 0.649
140 | RRIRVRPPRLPRPRPRPGTCPRP | 0.0803
141 | RRIRVRPPRLPRPRPRPGTHPRP | -0.056
142 | RRIRVRPPRLPRPRPRPGVDPRP | 0.0334
143 | RRIRVRPPRLPRPRPRPGWNPRP | -0.0405
144 | RRIRVRPPRLPRPRPRPGYCPRP | -0.307
145 | RRIRVRPPRLPRPRPRPGYEPRP | 0.232
146 | RRIRVRPPRLPRPRPRPHALPRP | -0.129
147 | RRIRVRPPRLPRPRPRPHASPRP | -0.15
148 | RRIRVRPPRLPRPRPRPHCCPRP | -0.147
149 | RRIRVRPPRLPRPRPRPHCIPRP | -0.551
150 | RRIRVRPPRLPRPRPRPHDWPRP | 0.00123
